Laboratory results reported in PMC3597684.

T1: SopB-R219K (plasmid F (Escherichia coli), UniProt P62558 1-323, R219K)
T1 sequence: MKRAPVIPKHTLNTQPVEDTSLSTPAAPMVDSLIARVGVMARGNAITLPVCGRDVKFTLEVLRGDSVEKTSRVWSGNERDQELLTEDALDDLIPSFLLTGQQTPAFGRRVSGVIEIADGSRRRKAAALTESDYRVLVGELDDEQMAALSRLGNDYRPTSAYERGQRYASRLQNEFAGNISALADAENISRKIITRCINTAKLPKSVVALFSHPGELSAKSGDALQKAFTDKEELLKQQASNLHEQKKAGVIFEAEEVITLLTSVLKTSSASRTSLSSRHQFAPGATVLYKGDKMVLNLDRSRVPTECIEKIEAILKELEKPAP

T2: SopB-R219A (plasmid F (Escherichia coli), UniProt P62558 1-323, R219A)
T2 sequence: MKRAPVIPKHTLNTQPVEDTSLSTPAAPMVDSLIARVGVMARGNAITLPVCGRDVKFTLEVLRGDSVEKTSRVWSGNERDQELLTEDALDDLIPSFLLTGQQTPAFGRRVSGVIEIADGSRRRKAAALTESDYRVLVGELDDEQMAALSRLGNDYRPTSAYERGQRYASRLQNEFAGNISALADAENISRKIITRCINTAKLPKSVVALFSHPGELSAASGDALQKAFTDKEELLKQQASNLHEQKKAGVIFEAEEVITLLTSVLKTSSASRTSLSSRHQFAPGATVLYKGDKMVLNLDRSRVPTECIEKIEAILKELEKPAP

T3: SopB (SopB-G324) (plasmid F (Escherichia coli), UniProt P62558 1-323)
T3 sequence: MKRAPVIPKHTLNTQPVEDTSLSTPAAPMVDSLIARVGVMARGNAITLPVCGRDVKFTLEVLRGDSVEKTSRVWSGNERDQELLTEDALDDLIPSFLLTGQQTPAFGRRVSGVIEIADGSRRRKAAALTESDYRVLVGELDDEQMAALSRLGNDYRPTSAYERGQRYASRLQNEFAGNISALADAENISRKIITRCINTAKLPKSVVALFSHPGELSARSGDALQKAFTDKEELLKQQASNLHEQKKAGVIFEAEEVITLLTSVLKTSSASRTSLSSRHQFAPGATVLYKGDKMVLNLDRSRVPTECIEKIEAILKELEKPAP

T4: ParBPput-R194A (ParBPput-G291-R194A) (Pseudomonas putida, UniProt P0A152 1-290, R194A)
T4 sequence: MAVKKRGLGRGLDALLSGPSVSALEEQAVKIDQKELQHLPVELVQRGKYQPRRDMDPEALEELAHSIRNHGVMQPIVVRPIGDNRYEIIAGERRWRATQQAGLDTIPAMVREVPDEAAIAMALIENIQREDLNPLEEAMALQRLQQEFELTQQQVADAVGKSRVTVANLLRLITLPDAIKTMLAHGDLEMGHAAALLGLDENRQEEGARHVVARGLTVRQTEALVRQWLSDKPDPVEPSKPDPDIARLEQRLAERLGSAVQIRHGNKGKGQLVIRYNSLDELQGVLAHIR


Assays:
Assay in all cases: EMSA
SopB-R219K = biological target: T1, SopB-R219K
SopB-R219A = biological target: T2, SopB-R219A
SopB (SopB-G324) = biological target: T3, SopB (SopB-G324)
[1] = biological target: T4, ParBPput-R194A (ParBPput-G291-R194A)

Row | Binder | binding signal (SopB-R219K) | binding signal (SopB-R219A) | binding result (SopB (SopB-G324)) | binding result [1]
1 | sopC2 (dsDNA) DNA 1: ATTAGTCTGGGACCACGGTCCCACTCGTAT DNA 2: ATACGAGTGGGACCGTGGTCCCAGACTAAT | ~100 fold loss vs wild-type SopB | > 200 fold loss vs wild-type SopB | binds | 
2 | parS66 (Pput parS; assignment from listing order) (dsDNA) DNA 1: ATTAGTCTGTTCCACGTGGAACACTCGTAT DNA 2: ATACGAGTGTTCCACGTGGAACAGACTAAT |  |  |  | no binding
